One assay has as its target T1, human IgG (human).
T1 construct: Cross-reactivity control coated at 5 micrograms/mL; also called hIgG
Briefly: phage ELISA titration, hIgG-coated wells, HRP anti-M13 antibody, luminescence. Here is the method:
(§1) 96-well black ELISA plates were coated with streptavidin (Rows A through D), hIgG (Rows E and F) and human serum albumin (Rows G and H), at a concentration of 5 micrograms/mL in PBS. Plates were incubated overnight at 4° C. Plates were washed 3 times with TBST using a plate washer. To the streptavidin-coated wells in rows C and D, 100 microliters of a 4 micrograms/mL solution of biotinylated-BMP-2 (R&D Systems, Minneapolis, Minn., Item number 355-BM/CF), was introduced and allowed to sit at room temperature for 30 minutes. To all other wells, 100 microliters of PBS was introduced. The plates were again washed 3 times with TBST using the plate washer. The wells were then blocked with 250 microliters of a 3% dehydrated milk suspension in TBST and allowed to sit at room temperature for a minimum of 1 hour. Using phage concentrations determined by the phage titrations, dilutions of the phage stock solutions were performed in a separate 96-well plate to result in phage concentrations of 10¹⁰, 10⁹, 10⁸, 10⁷, 10⁶ and 10⁵ phage/well. After blocking, the ELISA plate was washed 3 times with TBST and 100 microliters of the phage dilutions were introduced to the respective ELISA plates and allowed to sit at room temperature for a minimum of 1 hour. […] The luminescence was read using a luminometer set with a gain of 150.
A general note: In an ELISA, binding on a coated surface is turned into a signal by an enzyme label.

The target in assay [1] is T2, human serum albumin (human, UniProt P02768 25-609).
T2 construct: Cross-reactivity control coated at 5 micrograms/mL; also called HSA
The assay can be described thus: phage ELISA titration, HSA-coated wells, HRP anti-M13 antibody, luminescence. Here is the method:
as §1

Assay [2] deals with T3, biotinylated BMP-2 (R&D Systems, Item number 355-BM/CF) (human, UniProt P12643 283-396, biotinylated (sites not given)).
T3 construct: Bought protein, biotinylated, captured on streptavidin plates (phage ELISA) or streptavidin donor beads (ALPHA); also called bone morphogenic protein-2
Briefly: phage ELISA titration, biotinylated BMP-2 captured on streptavidin-coated wells, HRP anti-M13 antibody, luminescence. Here is the method:
(§2) 96-well black ELISA plates were coated with streptavidin (Rows A through D), hIgG (Rows E and F) and human serum albumin (Rows G and H), at a concentration of 5 micrograms/mL in PBS. Plates were incubated overnight at 4° C. Plates were washed 3 times with TBST using a plate washer. To the streptavidin-coated wells in rows C and D, 100 microliters of a 4 micrograms/mL solution of biotinylated-BMP-2 (R&D Systems, Minneapolis, Minn., Item number 355-BM/CF), was introduced and allowed to sit at room temperature for 30 minutes. To all other wells, 100 microliters of PBS was introduced. The plates were again washed 3 times with TBST using the plate washer. The wells were then blocked with 250 microliters of a 3% dehydrated milk suspension in TBST and allowed to sit at room temperature for a minimum of 1 hour. Using phage concentrations determined by the phage titrations, dilutions of the phage stock solutions were performed in a separate 96-well plate to result in phage concentrations of 10¹⁰, 10⁹, 10⁸, 10⁷, 10⁶ and 10⁵ phage/well. After blocking, the ELISA plate was washed 3 times with TBST and 100 microliters of the phage dilutions were introduced to the respective ELISA plates and allowed to sit at room temperature for a minimum of 1 hour. The ELISA plate was again washed 3 times with TBST using the plate washer and 100 microliters of an HRP-conjugated Anti-M13 Phage Mab (1:5000 dilution in PBS) was introduced to each well. The plates were allowed to sit at room temperature for 1 hour after which time the plates were washed 3 times with TBST. Next, a POD HRP-substrate was introduced to each well. The luminescence was read using a luminometer set with a gain of 150.

The target in assay [3] is T3, biotinylated BMP-2 (R&D Systems, Item …). Briefly: mutant phage ELISA titration on BMP-2 by the procedure of Example 3. Here is the method:
as §2, with “To” for “96-well black ELISA plates were coated with streptavidin (Rows A through D), hIgG (Rows E and F) and human serum albumin (Rows G and H), at a concentration of 5 micrograms/mL in PBS. Plates were incubated overnight at 4° C. Plates were washed 3 times with TBST using a plate washer. To the streptavidin-coated wells in rows C and D, 100 microliters of a 4 micrograms/mL solution of biotinylated-BMP-2 (R&D Systems, Minneapolis, Minn., Item number 355-BM/CF), was introduced and allowed to sit at room temperature for 30 minutes. To”
The respective custom oligonucleotide was obtained from Integrated DNA Technologies. The oligonucletides were inserted into the pIX gene using standard protocols. First, the oligonucletides were phosphorylated using T4 polynucleotide kinase. Next, the phosphorylated oligonucletides were annealed to the ssDNA template. Using the Kunkel method, the annealed DNA was ligated using T4 DNA ligase and T7 DNA polymerase. The resultant DNA was isolated using isopropanol precipitation and a gel was run to confirm the reaction. Lastly, electro-competent E. coli cells were transformed with the purified DNA and were plated out onto 2xYT/Tet/Xgal agar plates and allowed to grow overnight to isolate single colonies. An aliquot of the transformed cells was allowed to grow overnight at 37° C. while shaking in 50 mL 2xYT/tet media. The phage were then PEG precipitated following the procedure in Example 1. A phage titration was performed to determine the concentration of phage for the ELISA assay as described in Example 2. ELISA assays were performed following the procedure in Example 3.

The target of assay [4] is T4, rhBMP-2 (R&D Systems, Item number 355-BM/CF) (human, UniProt P12643 283-396).
T4 construct: Coupled to a CM4 chip by EDC/NHS in SPR; also called human recombinant BMP-2
Briefly: SPR (Biacore S51), rhBMP-2 on CM4 chip, peptide at 5 micromolar, 1:1 Langmuir fit, N=3. Here is the method:
Peptide binding affinity to BMP-2 was evaluated for SEQ ID NO: 3 and SEQ ID NO: 6 by surface plasmon resonance measurements. Measurements were performed on a Biacore S51 (Biacore Life Sciences, Piscataway, N.J.) instrument using a CM4 Series-S sensor chip. rhBMP-2 (R&D Systems, Minneapolis, Minn., Item number 355-BM/CF) was immobilized on the sensor chip using 1-ethyl-3[3-dimethylaminopropyl]carbodiimide hydrochloride (EDC)/N-hydroxysuccinimide (NHS) coupling chemistry. […] Data were fit to a 1:1 Langmuir binding model using Biacore Analysis Software (Biacore Life Sciences, Piscataway, N.J.).
The data shown in Table 2 are average equilibrium dissociation constants with an N value of 3.
In general terms: In SPR one partner is held on a chip, and binding of the other changes the refractive index at the surface.

The target in assay [5] is T3, biotinylated BMP-2 (R&D Systems, Item …). The assay can be described thus: ALPHA, biotinylated BMP-2 at 0.825 micrograms/mL, Ni-acceptor and streptavidin-donor beads. Here is the method:
Diluted stock of biotinylated BMP-2 (R&D Systems, Minneapolis, Minn., Item number 355-BM/CF) at 3.3 micrograms/ml was prepared in 2× assay buffer (PBS, 0.01% Tween-80, 0.05% BSA). Chemically synthesized peptides having SEQ ID NO: 1, SEQ ID NO: 2, SEQ ID NO: 3, and SEQ ID NO: 6 were prepared using standard, automated Fluorenylmethyloxycarbonyl (Fmoc) solid phase peptide synthesis procedures. Each peptide solution for the assay was prepared from a 100 microgram/mL stock solution. The stock solution was serially diluted in ½ log steps in assay buffer resulting in peptide concentrations of 100, 33.3, 11.1, 3.70, 1.23, 0.41, 0.14, 0.046, 0.015, 0.0051, 0.0017 and 0.00056 micrograms/mL. Subsequently, serially diluted peptides were added to the corresponding wells containing the 10 microliters of the 3.3 microgram/mL solution of biotinylated BMP-2. Final assay test concentration for biotinylated BMP-2 was 0.825 micrograms/mL. Final peptide concentrations were 25, 8.3, 2.8, 0.93, 0.31, 0.10, 0.03, 0.01, 0.003, 0.001, 0.0003 and 0.0001 micrograms/mL. Next, Nickel (Ni)-acceptor and streptavidin (SA)-donor beads (Perkin Elmer, Waltham, Mass., Item number 6760619M) were diluted 1:100 in assay buffer prior to adding 20 microliters to each test well. […] The emission of the plate was read using a dual wavelength fluorometer (Perkin Elmer (Waltham, Mass.) Envision 2101 Multilabel Reader).

The target in the next assay is Streptavidin. The assay can be described thus: phage ELISA titration, streptavidin-coated wells without BMP-2, HRP anti-M13 antibody, luminescence. Here is the method:
as §1

The target in assay [6] is T2, human serum albumin. The assay can be described thus: phage ELISA, HSA-coated wells, HRP anti-M13 antibody, luminescence. Here is the method:
as §2

No end group written: not given here.

T3 sequence (P12643 283-396 limits assumed): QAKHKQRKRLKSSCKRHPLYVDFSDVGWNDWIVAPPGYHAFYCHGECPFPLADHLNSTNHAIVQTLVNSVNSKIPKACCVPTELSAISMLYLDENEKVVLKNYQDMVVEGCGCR
T4 sequence (P12643 283-396 limits assumed): as above

B1: phage displaying the peptide of SEQ ID NO: 4 on the pIX minor coat protein (peptide)
peptide: AGFRWWHTQPAHTLSYT
modifications: also: displayed on phage pIX minor coat protein, junction not given here
notes: not shown: pIX minor coat protein of the phage that carries the peptide
As to B1, the “EC50 (read off the curve)” value with human IgG was approximately 1e+08 phage/well. Also, the binding result (in the assay with human serum albumin [1]; in assay [2]) was “binds” throughout.
With AGRDSFNLSSSSPLPST [SEQ ID NO: 30], in assay [3], the binding result is given as “no binding (tested: 1.00E+10 phage/well)”.

B2: phage displaying the peptide of SEQ ID NO: 7 on the pIX minor coat protein (peptide)
peptide: AGYRCSELPLYCST
modifications: cysteine pairing not given here; also: displayed on phage pIX minor coat protein
notes: as for B1
Take B2: the binding result in assay [2] is “binds”.

B3: chemically synthesized peptide having SEQ ID NO: 6 (peptide)
peptide: AGRDSFNLLTSSPLPST
notes: Fmoc solid phase synthesis; used in ALPHA, SPR and the alkaline phosphatase assay
With B3, the Kd – broadly, the equilibrium constant for the complex coming apart – in assay [4] worked out at 303 nM.

B4: chemically synthesized peptide having SEQ ID NO: 3 (peptide)
peptide: AGYTSFALLKSAESTLP
notes: Fmoc solid phase synthesis; used in ALPHA and SPR
On to B4, for which the affinity in assay [4], expressed as Kd, was 398 nM.
Consider AGPPGPYIAASAFLALK (Fmoc solid phase synthesis) [chemically synthesized peptide having SEQ ID NO: 2], for which, in assay [5], the binding result is “binds”.
Still for that read-out and setting: with AGLPLQSMSRLSYDSLS (Fmoc solid phase synthesis) [chemically synthesized peptide having SEQ ID NO: 1] the entry was “binds”.
For AGYTSFALSSSAESTLP [SEQ ID NO: 26], the binding result in assay [3] is given as “no binding (tested: 1.00E+10 phage/well)”.
Same read-out and setting: with AGRDSFNLLTSSPLSSS [SEQ ID NO: 32] the entry was “binds”.

B5: phage displaying the peptide of SEQ ID NO: 3 on the pIX minor coat protein (peptide)
peptide: AGYTSFALLKSAESTLP
modifications: also: displayed on phage pIX coat protein fusion
notes: as for B1
Turning to B5, the binding result with Streptavidin is reported as “no binding (tested: 1.00E+10 phage/well)”; with human serum albumin [6], “no binding (tested: 10^9 phage/mL)”. The “EC50 (read off the curve)” value in assay [2] is approximately 1e+08 phage/well.
Consider AGRDSFNLLTSSSSPST [SEQ ID NO: 31], for which the binding result in assay [3] is listed as “binds”.

The values above are taken from patent US20110230406A1 (ADVANCED TECHNOLOGIES AND REGENERATIVE MEDICINE, published 2011).
